From patent US20140087995A1 (published 2014)
Numbered stars: 1 amine (or outer) side, 2 acyl side, 3 side chain; on linkers, the order of the positions; unused ones are H or OH. Bridge positions count the residues as written; N and C are the ends. Side chains are listed from the residue outwards. Ends that are not written are not given here. * marks the point of attachment. C20 diacid = O=C(O)CCCCCCCCCCCCCCCCCCC(=O)*; γGlu = O=C(O)[C@H](CCC(=O)[*:2])N[*:1]; AEEA = NCCOCCOCC(=O)O

T1: human amylin receptor (amylin 3(a) receptor: human calcitonin receptor with RAMP-3) (human, UniProt P30988 25-474; O60896 24-148)
T1 construct: whole, on cells; also called hAmylin-R; hAmylinR
T1 sequence (looked up) 1: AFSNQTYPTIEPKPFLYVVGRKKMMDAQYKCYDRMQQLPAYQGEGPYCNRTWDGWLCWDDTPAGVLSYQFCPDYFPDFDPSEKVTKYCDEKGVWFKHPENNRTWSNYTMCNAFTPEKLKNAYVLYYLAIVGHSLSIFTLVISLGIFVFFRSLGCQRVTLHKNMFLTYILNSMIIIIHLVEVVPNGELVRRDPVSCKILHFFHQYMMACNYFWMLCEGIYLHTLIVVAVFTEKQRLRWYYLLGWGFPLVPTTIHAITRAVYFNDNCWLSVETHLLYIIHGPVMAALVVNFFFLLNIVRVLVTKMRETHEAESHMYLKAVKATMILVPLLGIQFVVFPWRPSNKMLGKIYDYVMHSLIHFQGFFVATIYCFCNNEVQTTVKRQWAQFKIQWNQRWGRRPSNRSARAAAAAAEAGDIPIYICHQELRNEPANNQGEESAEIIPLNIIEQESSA
T1 sequence (looked up) 2: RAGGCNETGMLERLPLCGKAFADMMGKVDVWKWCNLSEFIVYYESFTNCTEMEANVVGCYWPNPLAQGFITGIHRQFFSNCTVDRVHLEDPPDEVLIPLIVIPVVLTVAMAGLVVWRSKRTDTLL

B1: N^ε1-[2-[2-[2-[[2-[2-[2-[[(4S)-4-carboxy-4-(19-carboxynonadecanoylamino)butanoyl]amino]ethoxy]ethoxy]acetyl]amino]ethoxy]ethoxy]acetyl]-[Arg17,Pro21,Pro27,Pro34 … (peptide)
peptide: K([AEEA-AEEA-γGlu-C20 diacid])CNTATCATQRLANFLRHSSPNFGAIPSSTNVGPNTY-NH2
modifications: disulfide 2-7; N-terminus assumed
SMILES: CC[C@H](C)[C@H](NC(=O)[C@H](C)NC(=O)CNC(=O)[C@H](Cc1ccccc1)NC(=O)[C@H](CC(N)=O)NC(=O)[C@@H]1CCCN1C(=O)[C@H](CO)NC(=O)[C@H](CO)NC(=O)[C@H](Cc1c[nH]cn1)NC(=O)[C@H](CCCNC(=N)N)NC(=O)[C@H](CC(C)C)NC(=O)[C@H](Cc1ccccc1)NC(=O)[C@H](CC(N)=O)NC(=O)[C@H](C)NC(=O)[C@H](CC(C)C)NC(=O)[C@H](CCCNC(=N)N)NC(=O)[C@H](CCC(N)=O)NC(=O)[C@@H](NC(=O)[C@H](C)NC(=O)[C@@H]1CSSC[C@H](NC(=O)[C@@H](N)CCCCNC(=O)COCCOCCNC(=O)COCCOCCNC(=O)CC[C@H](NC(=O)CCCCCCCCCCCCCCCCCCC(=O)O)C(=O)O)C(=O)N[C@@H](CC(N)=O)C(=O)N[C@@H]([C@@H](C)O)C(=O)N[C@@H](C)C(=O)N[C@@H]([C@@H](C)O)C(=O)N1)[C@@H](C)O)C(=O)N1CCC[C@H]1C(=O)N[C@@H](CO)C(=O)N[C@@H](CO)C(=O)N[C@H](C(=O)N[C@@H](CC(N)=O)C(=O)N[C@H](C(=O)NCC(=O)N1CCC[C@H]1C(=O)N[C@@H](CC(N)=O)C(=O)N[C@H](C(=O)N[C@@H](Cc1ccc(O)cc1)C(N)=O)[C@@H](C)O)C(C)C)[C@@H](C)O
notes: also called 98; compound 98
B2: N^ε1-[2-[2-[2-[[(4S)-4-carboxy-4-(19-carboxynonadecanoylamino)butanoyl]amino]ethoxy]ethoxy]acetyl]-[Ala14,Arg17,Pro21,Pro27,Pro31]-h-amylin (peptide)
peptide: K([AEEA-γGlu-C20 diacid])CNTATCATQRLAAFLRHSSPNFGAIPSSTPVGSNTY-NH2
modifications: disulfide 2-7; N-terminus assumed
SMILES: CC[C@H](C)[C@H](NC(=O)[C@H](C)NC(=O)CNC(=O)[C@H](Cc1ccccc1)NC(=O)[C@H](CC(N)=O)NC(=O)[C@@H]1CCCN1C(=O)[C@H](CO)NC(=O)[C@H](CO)NC(=O)[C@H](Cc1c[nH]cn1)NC(=O)[C@H](CCCNC(=N)N)NC(=O)[C@H](CC(C)C)NC(=O)[C@H](Cc1ccccc1)NC(=O)[C@H](C)NC(=O)[C@H](C)NC(=O)[C@H](CC(C)C)NC(=O)[C@H](CCCNC(=N)N)NC(=O)[C@H](CCC(N)=O)NC(=O)[C@@H](NC(=O)[C@H](C)NC(=O)[C@@H]1CSSC[C@H](NC(=O)[C@@H](N)CCCCNC(=O)COCCOCCNC(=O)CC[C@H](NC(=O)CCCCCCCCCCCCCCCCCCC(=O)O)C(=O)O)C(=O)N[C@@H](CC(N)=O)C(=O)N[C@@H]([C@@H](C)O)C(=O)N[C@@H](C)C(=O)N[C@@H]([C@@H](C)O)C(=O)N1)[C@@H](C)O)C(=O)N1CCC[C@H]1C(=O)N[C@@H](CO)C(=O)N[C@@H](CO)C(=O)N[C@H](C(=O)N1CCC[C@H]1C(=O)N[C@H](C(=O)NCC(=O)N[C@@H](CO)C(=O)N[C@@H](CC(N)=O)C(=O)N[C@H](C(=O)N[C@@H](Cc1ccc(O)cc1)C(N)=O)[C@@H](C)O)C(C)C)[C@@H](C)O
notes: also called 72; compound 72
B3: N^ε1-[2-[2-[2-[[(4S)-4-carboxy-4-(19-carboxynonadecanoylamino)butanoyl]amino]ethoxy]ethoxy]acetyl]-[Arg17,Pro21,Pro27,Arg34]-h-amylin (peptide)
peptide: K([AEEA-γGlu-C20 diacid])CNTATCATQRLANFLRHSSPNFGAIPSSTNVGRNTY-NH2
modifications: disulfide 2-7; N-terminus assumed
SMILES: CC[C@H](C)[C@H](NC(=O)[C@H](C)NC(=O)CNC(=O)[C@H](Cc1ccccc1)NC(=O)[C@H](CC(N)=O)NC(=O)[C@@H]1CCCN1C(=O)[C@H](CO)NC(=O)[C@H](CO)NC(=O)[C@H](Cc1c[nH]cn1)NC(=O)[C@H](CCCNC(=N)N)NC(=O)[C@H](CC(C)C)NC(=O)[C@H](Cc1ccccc1)NC(=O)[C@H](CC(N)=O)NC(=O)[C@H](C)NC(=O)[C@H](CC(C)C)NC(=O)[C@H](CCCNC(=N)N)NC(=O)[C@H](CCC(N)=O)NC(=O)[C@@H](NC(=O)[C@H](C)NC(=O)[C@@H]1CSSC[C@H](NC(=O)[C@@H](N)CCCCNC(=O)COCCOCCNC(=O)CC[C@H](NC(=O)CCCCCCCCCCCCCCCCCCC(=O)O)C(=O)O)C(=O)N[C@@H](CC(N)=O)C(=O)N[C@@H]([C@@H](C)O)C(=O)N[C@@H](C)C(=O)N[C@@H]([C@@H](C)O)C(=O)N1)[C@@H](C)O)C(=O)N1CCC[C@H]1C(=O)N[C@@H](CO)C(=O)N[C@@H](CO)C(=O)N[C@H](C(=O)N[C@@H](CC(N)=O)C(=O)N[C@H](C(=O)NCC(=O)N[C@@H](CCCNC(=N)N)C(=O)N[C@@H](CC(N)=O)C(=O)N[C@H](C(=O)N[C@@H](Cc1ccc(O)cc1)C(N)=O)[C@@H](C)O)C(C)C)[C@@H](C)O
notes: also called 78; compound 78
B4: N^ε1-[2-[2-[2-[[(4S)-4-carboxy-4-(19-carboxynonadecanoylamino)butanoyl]amino]ethoxy]ethoxy]acetyl]-[Arg14,Arg17,Pro21,Pro27,Pro31]-h-amylin (peptide)
peptide: K([AEEA-γGlu-C20 diacid])CNTATCATQRLARFLRHSSPNFGAIPSSTPVGSNTY-NH2
modifications: disulfide 2-7; N-terminus assumed
SMILES: CC[C@H](C)[C@H](NC(=O)[C@H](C)NC(=O)CNC(=O)[C@H](Cc1ccccc1)NC(=O)[C@H](CC(N)=O)NC(=O)[C@@H]1CCCN1C(=O)[C@H](CO)NC(=O)[C@H](CO)NC(=O)[C@H](Cc1c[nH]cn1)NC(=O)[C@H](CCCNC(=N)N)NC(=O)[C@H](CC(C)C)NC(=O)[C@H](Cc1ccccc1)NC(=O)[C@H](CCCNC(=N)N)NC(=O)[C@H](C)NC(=O)[C@H](CC(C)C)NC(=O)[C@H](CCCNC(=N)N)NC(=O)[C@H](CCC(N)=O)NC(=O)[C@@H](NC(=O)[C@H](C)NC(=O)[C@@H]1CSSC[C@H](NC(=O)[C@@H](N)CCCCNC(=O)COCCOCCNC(=O)CC[C@H](NC(=O)CCCCCCCCCCCCCCCCCCC(=O)O)C(=O)O)C(=O)N[C@@H](CC(N)=O)C(=O)N[C@@H]([C@@H](C)O)C(=O)N[C@@H](C)C(=O)N[C@@H]([C@@H](C)O)C(=O)N1)[C@@H](C)O)C(=O)N1CCC[C@H]1C(=O)N[C@@H](CO)C(=O)N[C@@H](CO)C(=O)N[C@H](C(=O)N1CCC[C@H]1C(=O)N[C@H](C(=O)NCC(=O)N[C@@H](CO)C(=O)N[C@@H](CC(N)=O)C(=O)N[C@H](C(=O)N[C@@H](Cc1ccc(O)cc1)C(N)=O)[C@@H](C)O)C(C)C)[C@@H](C)O
notes: also called 64; compound 64
B5: N^ε1-[2-[2-[2-[[(4S)-4-carboxy-4-(19-carboxynonadecanoylamino)butanoyl]amino]ethoxy]ethoxy]acetyl]-[Arg17,Pro21,Pro27,Arg35]-h-amylin (peptide)
peptide: K([AEEA-γGlu-C20 diacid])CNTATCATQRLANFLRHSSPNFGAIPSSTNVGSRTY-NH2
modifications: disulfide 2-7; N-terminus assumed
SMILES: CC[C@H](C)[C@H](NC(=O)[C@H](C)NC(=O)CNC(=O)[C@H](Cc1ccccc1)NC(=O)[C@H](CC(N)=O)NC(=O)[C@@H]1CCCN1C(=O)[C@H](CO)NC(=O)[C@H](CO)NC(=O)[C@H](Cc1c[nH]cn1)NC(=O)[C@H](CCCNC(=N)N)NC(=O)[C@H](CC(C)C)NC(=O)[C@H](Cc1ccccc1)NC(=O)[C@H](CC(N)=O)NC(=O)[C@H](C)NC(=O)[C@H](CC(C)C)NC(=O)[C@H](CCCNC(=N)N)NC(=O)[C@H](CCC(N)=O)NC(=O)[C@@H](NC(=O)[C@H](C)NC(=O)[C@@H]1CSSC[C@H](NC(=O)[C@@H](N)CCCCNC(=O)COCCOCCNC(=O)CC[C@H](NC(=O)CCCCCCCCCCCCCCCCCCC(=O)O)C(=O)O)C(=O)N[C@@H](CC(N)=O)C(=O)N[C@@H]([C@@H](C)O)C(=O)N[C@@H](C)C(=O)N[C@@H]([C@@H](C)O)C(=O)N1)[C@@H](C)O)C(=O)N1CCC[C@H]1C(=O)N[C@@H](CO)C(=O)N[C@@H](CO)C(=O)N[C@H](C(=O)N[C@@H](CC(N)=O)C(=O)N[C@H](C(=O)NCC(=O)N[C@@H](CO)C(=O)N[C@@H](CCCNC(=N)N)C(=O)N[C@H](C(=O)N[C@@H](Cc1ccc(O)cc1)C(N)=O)[C@@H](C)O)C(C)C)[C@@H](C)O
notes: also called 38; compound 38
B6: N^ε1-[2-[2-[2-[[(4S)-4-carboxy-4-(19-carboxynonadecanoylamino)butanoyl]amino]ethoxy]ethoxy]acetyl]-[Arg14,Arg17,Pro21,Pro27]-h-amylin (peptide)
peptide: K([AEEA-γGlu-C20 diacid])CNTATCATQRLARFLRHSSPNFGAIPSSTNVGSNTY-NH2
modifications: disulfide 2-7; N-terminus assumed
SMILES: CC[C@H](C)[C@H](NC(=O)[C@H](C)NC(=O)CNC(=O)[C@H](Cc1ccccc1)NC(=O)[C@H](CC(N)=O)NC(=O)[C@@H]1CCCN1C(=O)[C@H](CO)NC(=O)[C@H](CO)NC(=O)[C@H](Cc1c[nH]cn1)NC(=O)[C@H](CCCNC(=N)N)NC(=O)[C@H](CC(C)C)NC(=O)[C@H](Cc1ccccc1)NC(=O)[C@H](CCCNC(=N)N)NC(=O)[C@H](C)NC(=O)[C@H](CC(C)C)NC(=O)[C@H](CCCNC(=N)N)NC(=O)[C@H](CCC(N)=O)NC(=O)[C@@H](NC(=O)[C@H](C)NC(=O)[C@@H]1CSSC[C@H](NC(=O)[C@@H](N)CCCCNC(=O)COCCOCCNC(=O)CC[C@H](NC(=O)CCCCCCCCCCCCCCCCCCC(=O)O)C(=O)O)C(=O)N[C@@H](CC(N)=O)C(=O)N[C@@H]([C@@H](C)O)C(=O)N[C@@H](C)C(=O)N[C@@H]([C@@H](C)O)C(=O)N1)[C@@H](C)O)C(=O)N1CCC[C@H]1C(=O)N[C@@H](CO)C(=O)N[C@@H](CO)C(=O)N[C@H](C(=O)N[C@@H](CC(N)=O)C(=O)N[C@H](C(=O)NCC(=O)N[C@@H](CO)C(=O)N[C@@H](CC(N)=O)C(=O)N[C@H](C(=O)N[C@@H](Cc1ccc(O)cc1)C(N)=O)[C@@H](C)O)C(C)C)[C@@H](C)O
notes: also called 82; compound 82

What follows are binders tested against T1, human amylin receptor (amylin 3(a) …) (assay: SPA displacement of 125I-rat amylin, hAmylin 3(a) receptor membranes).
Method in brief: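 Cell membranes were prepared by homogenisation in Na-HEPES/EDTA buffer, pH 7.4, and stored at −80° C. They were then coupled to SPA beads at 35 ng/μL final and exposed to compounds in assay buffer containing CaCl2, MgCl₂, OA and Tween20. After 120 min at 25° C, plates were counted and IC₅₀ derived.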
Work on B1 yielded an IC50 of 0.091 nM. With B2 the IC50 was 0.172 nM. With B3 the IC50 was 0.602 nM. Work on B4 yielded an IC50 of 0.444 nM. In the case of B5, the IC50 is reported as 0.249 nM. B6 gave an IC50 of 0.636 nM.
